From PMC10361993, “Amyloid modifier SERF1a interacts with polyQ-expanded huntingtin-exon 1 via helical interactions and exacerbates polyQ-induced toxicity” (Communications Biology, 2023) come the findings set out here.

“And” between values parts separate entries of the source, which are not always exact repeats. Equal values may be shown once. Where a SMILES comes first, the peptide text is derived from it.

T1: SERF1a (Homo sapiens, UniProt O75920)
T1 construct: Full-length SERF1a cDNA was amplified by PCR; His-tag with thrombin site (N, cleaved yes); made in house; host or cells: E. coli BL21(DE3), pET14b
T1 sequence (O75920 1-62 isoform O75920-2): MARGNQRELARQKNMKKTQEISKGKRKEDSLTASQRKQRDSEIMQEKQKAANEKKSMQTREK

B1: Human SERF1a (small EDRK-rich factor 1a), short form (natural protein, UniProt O75920-2 1-62, looked up)
chain: T1 sequence (O75920 1-62 isoform O75920-2)
notes: Small EDRK-rich factor 1a, human, short form of 62 residues (the long form has 110); full-length cDNA amplified by PCR from GenBank BC021174; 15N-labelled (M9 minimal medium) for the NMR titration; also called rSERF1a; recombinant SERF1a; source: E. coli BL21(DE3), purified (Ni-Sepharose, thrombin cleavage, Mono-S); not shown: His-tag, N-terminal, cleaved
B2: NT17 peptide (N-terminal 17 amino acids of Htt) (peptide, UniProt P42858 1-17, looked up)
peptide: MATLEKLMKAFESLKSF
notes: N-terminal 17 amino acids of huntingtin; source: synthetic peptide (peptide synthesis core, Genomics Research Center, Academia Sinica)

Series [1] addresses T1, SERF1a. Kind of series: Isothermal titration calorimetry of Htt peptides with SERF1a. It counts as binding. As to conditions: ITC, 250 μM SERF1a injected into 50 μM peptide, 10 mM PB pH 7.4, 26 °C. The protocol: MicroCal iTC200 (GE) was used for ITC experiments. SERF1a was in 10 mM PB, pH 7.4. For Htt-0, Htt-1, Htt-2, Htt-4, and Htt-5, 300 μM SERF1a in syringe was injected into the cell containing 30 μM Htt peptides. The volume of each injection was 2 μl. For Htt-3 and NT17, 250 μM SERF1a in syringe was injected into the cell containing 50 μM Htt peptides. The volume of each injection was 1.5 μl. The cell of the calorimeter was maintained at 26 °C. ITC analysis software MicroCal Analysis Launcher (GE Healthcare) was used for data analysis.
In general terms: In ITC the heat of successive injections is recorded.

Series [2] is described as follows: ThT assay of Aβ and α-synuclein fibrillization with and without SERF1a. Type of series: physicochemical. The settings on record: Aβ 25 μM, α-synuclein 50 μM, 25 °C, shaking.
Description: For SERF1a and α-synuclein aggregation assay, α-Synuclein at 50 μM in Tris buffer (10 mM Tris-HCl, pH 7.4, and 150 mM NaCl) was incubated with different SERF1a concentrations in a 384-well ELISA plate. ThT at 10 μM was added in the samples. The samples were constantly rotated at 400 rpm during the incubation. ThT fluorescence was measured at 485 nm with an excitation of 442 nm at 25 °C by a microplate reader (SpectraMax M5; Molecule Devices) with SoftMax Pro 5.4. The data from independent trials were averaged, and the standard deviations were calculated.
were incubated at 25 °C with continuous shaking at 800 rpm. ThT fluorescence at 485 nm was monitored with excitation at 442 nm. The error bars represent standard deviation.
Series [3] addresses T1, SERF1a. Description: Intrinsic tyrosine fluorescence titration of Aβ or α-synuclein with SERF1a. It counts as binding. As to conditions: tyrosine fluorescence quenching upon SERF1a titration, fitted.
Series [4] concerns the target B2. Kind of series: ITC; 250 μM SERF1a in syringe injected into 50 μM Htt-3 or NT17 in the cell; 10 mM PB pH 7.4, 26 °C, 1.5 μl injections. As to conditions: both partners purified.
Series [5] has as its target Htt-3 peptide (four prolines at a/d positions of the polyQ region). The description is as above.
A further series addresses α-Synuclein, P37840. Kind of series: other fluorescence titration; tyrosine fluorescence of Aβ or α-synuclein titrated with SERF1a at different concentrations; quenching fitted. The settings on record: remark: other sources report otherwise.
Series [6] concerns the target B1. Kind of series: ITC; 250 μM SERF1a in syringe injected into 50 μM Htt-3 or NT17 in the cell; 10 mM PB pH 7.4, 26 °C, 1.5 μl injections. As to conditions: both partners purified.
Series [7] deals with the molecule itself. Description: AUC; sedimentation velocity; NT17 and Htt-3 at 50 μM, Htt-0, Htt-1, Htt-2, Htt-4 and Htt-5 at 30 μM, in 10 mM PB pH 7.4, 42,000 rpm for 24 h at 25 °C; c(s) distribution, SEDFIT.

As for `CSCC[C@H](NC(=O)[C@H](CC(C)C)NC(=O)[C@H](CCCCN)NC(=O)[C@H](CCC(=O)O)NC(=O)[C@H](CC(C)C)NC(=O)[C@@H](NC(=O)[C@H](C)NC(=O)[C@@H](N)CCSC)[C@@H](C)O)C(=O)N[C@@H](CCCCN)C(=O)N[C@@H](C)C(=O)N[C@@H](Cc1ccccc1)C(=O)N[C@@H](CCC(=O)O)C(=O)N[C@@H](CO)C(=O)N[C@@H](CC(C)C)C(=O)N[C@@H](CCCCN)C(=O)N[C@@H](CO)C(=O)N[C@@H](Cc1ccccc1)C(=O)N1CCC[C@H]1C(=O)N[C@@H](CCC(N)=O)C(=O)N[C@@H](CCC(N)=O)C(=O)N1CCC[C@H]1C(=O)N[C@@H](CCC(N)=O)C(=O)N[C@@H](CCC(N)=O)C(=O)N[C@@H](CCC(N)=O)C(=O)N1CCC[C@H]1C(=O)N[C@@H](CCC(N)=O)C(=O)N[C@@H](CCC(N)=O)C(=O)N1CCC[C@H]1C(=O)N[C@@H](CCC(N)=O)C(=O)N[C@@H](CCC(N)=O)C(=O)N[C@@H](CCC(N)=O)C(=O)N[C@@H](Cc1ccc(O)cc1)C(=O)N[C@@H](CCCCN)C(=O)O` [Htt-3] (H-MATLEKLMKAFESLKSFPQQPQQQPQQPQQQYK-OH), binding on SERF1a [1] was put at a Kd of 0.332 µM. This counts as sub-micromolar.

Consider α-synuclein, for which the “effect of SERF1a on fibrillization (ThT assay)” value in series [2] is recorded as “accelerated”. Also, the affinity at SERF1a [3], expressed as Kd, was 20.8 ± 8.3 µM.

As to B1, the stoichiometry N (usually a count of units in the complex or per binding partner) in series [4] is roughly 0.5; in series [5], 0.5. Also, the Ka in series [5] came out at 3.01e+06 M⁻¹. For the same molecule, the Kd (as a rule, the concentration at which binding is half-saturated) in series [5] was 0.332 µM; in the series with α-Synuclein, P37840, 20.8 µM.

In series [6], B2 yielded a Ka of 1.38e+07 M⁻¹ and a Kd of 0.0725 µM.

With MATLEKLMKAFESLKSFQQQQQQQQQQQQQQPPP [Htt-0, wild-type Htt peptide of 33 amino acids], the “stoichiometry N” value in series [7] turned out to be 2.

Turning to MATLEKLMKAFESLKSFLQQLQQQLQQLQQQPPP [Htt-1, Htt peptide with four leucines in the polyQ region], the “stoichiometry N” value in series [7] is 5 and 8.
